# Measurements: US20230227577A1 (MYTHIC THERAPEUTICS, published 2023)
# B1: 3HCE56 anti-DLL3 VHH (VHH)
# VHH: QVQLQESGGGLVQAGGSLRLSCAASGRTFSVDAMGWLRQAPGKEREFVVVIDWTGGSTAYADSVKGRFTISRDNARNTVYLQMNNLKPEDTGVYYCAARERSRTAYDYWGQGTQVTVSS
# notes: In the binning assay it was used as a periplasmic extract
# How the values were obtained:
# [1] = target: T1, mouse DLL3 on CHO cells (mouse, UniProt O88516 33-592); test: flow cytometry (FACS) on CHO cells expressing mouse DLL3
# T1 construct: whole, on cells; also called CHO cells expressing mouse DLL3
# T1 sequence (looked up): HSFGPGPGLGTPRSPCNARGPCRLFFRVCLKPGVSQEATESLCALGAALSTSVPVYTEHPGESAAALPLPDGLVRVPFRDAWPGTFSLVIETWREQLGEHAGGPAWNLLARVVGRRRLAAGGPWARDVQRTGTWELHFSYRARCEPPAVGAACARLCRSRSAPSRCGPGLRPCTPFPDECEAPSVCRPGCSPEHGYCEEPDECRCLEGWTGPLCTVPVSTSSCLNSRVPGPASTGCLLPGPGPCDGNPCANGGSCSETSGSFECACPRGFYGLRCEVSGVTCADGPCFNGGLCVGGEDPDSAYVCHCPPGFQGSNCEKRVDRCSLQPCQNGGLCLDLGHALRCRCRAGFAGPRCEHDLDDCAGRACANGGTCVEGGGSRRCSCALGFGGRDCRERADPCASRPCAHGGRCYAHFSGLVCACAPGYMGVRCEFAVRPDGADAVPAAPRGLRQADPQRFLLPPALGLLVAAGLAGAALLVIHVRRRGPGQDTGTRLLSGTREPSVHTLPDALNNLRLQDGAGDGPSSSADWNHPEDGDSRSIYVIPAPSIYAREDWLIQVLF
# Procedure: (§1) Additional experiments were carried out to further characterize the binding properties of the anti-DLL3 constructs. Binding properties tested include dissociation constant (KD), off-rate (koff), binding to DLL3 protein by ELISA and binding to CHO cells expressing human, cyno or mouse DLL3. To obtain off-rate (koff), human biotinylated DLL3 was immobilized on Octet SA tips, and cynomolgus or mouse DLL3 was immobilized on Octet AR2G tips. For each DLL3 protein, the binding to a dilution series of each anti-DLL3 construct was measured using Fortebio Octet Red. The dissociation constant (KD), off-rate (koff) and other kinetic parameters for each anti-DLL3 construct were calculated using a 1:1 binding model. In addition, binding of these anti-DLL3 constructs to CHO cells expressing human, cyno or mouse DLL3 protein was analyzed using flow cytometry (FACS).
# [2] = target: T2, DLL3 target antigen coated on Octet SA tips (binning experiment) (Homo sapiens (Human), UniProt Q9NYJ7 27-492, Probably biotinylated for capture on streptavidin (SA) tips. The site is not stated.); test: Octet binning on DLL3-coated SA tips; competitor: 3HCE56
# T2 sequence: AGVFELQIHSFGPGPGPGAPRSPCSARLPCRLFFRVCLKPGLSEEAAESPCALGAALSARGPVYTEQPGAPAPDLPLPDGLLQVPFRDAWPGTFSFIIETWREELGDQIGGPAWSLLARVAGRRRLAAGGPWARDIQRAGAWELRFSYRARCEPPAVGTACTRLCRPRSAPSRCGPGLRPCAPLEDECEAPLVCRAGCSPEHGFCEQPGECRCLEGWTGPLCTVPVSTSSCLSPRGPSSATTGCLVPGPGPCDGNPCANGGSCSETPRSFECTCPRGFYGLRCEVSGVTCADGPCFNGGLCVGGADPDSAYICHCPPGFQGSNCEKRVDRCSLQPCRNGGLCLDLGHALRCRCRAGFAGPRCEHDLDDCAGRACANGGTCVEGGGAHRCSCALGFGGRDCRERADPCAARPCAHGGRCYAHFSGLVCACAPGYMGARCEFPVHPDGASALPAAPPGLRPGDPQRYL
# Procedure: (§2) Antibody binning experiments were carried out for 5 anti-DLL3 VHHs and an anti-human DLL3 BiTE (SEQ ID NO: 756). The target antigen was coated on a series of Octet SA tips. Each series of tips was first soaked in a periplasmic extract containing one specific VHH. After the response signals reached saturation, the tips were transferred to a mix of PEs containing again the first VHH (at the same concentration) plus a different VHH (termed secondary VHH) for each tip of the series. Secondary VHH that still bind the target antigen in the presence of the first VHH will show an increased response, as compared to the binding response of the first VHH alone. This was repeated for each VHH as primary VHH until all VHH were tested against each other in both directions (as primary and as secondary binder). From the response data, the bins were deduced for each VHH. 2HCE117 and 3HCE4 show competition with the human DLL3 BiTEs, whereas 3HCE56 and 3HCE87 show a partial competition.
# [3] = target: T3, recombinant human DLL3 protein (human, UniProt Q9NYJ7 27-492, limits assumed); test: Fortebio Octet Red, DLL3 immobilised on tips, dilution series of the VHH, 1:1 binding model; KD error 1.90E-10; Full R2 0.9862
# T3 construct: also called rhu DLL3; human biotinylated DLL3
# T3 sequence (looked up): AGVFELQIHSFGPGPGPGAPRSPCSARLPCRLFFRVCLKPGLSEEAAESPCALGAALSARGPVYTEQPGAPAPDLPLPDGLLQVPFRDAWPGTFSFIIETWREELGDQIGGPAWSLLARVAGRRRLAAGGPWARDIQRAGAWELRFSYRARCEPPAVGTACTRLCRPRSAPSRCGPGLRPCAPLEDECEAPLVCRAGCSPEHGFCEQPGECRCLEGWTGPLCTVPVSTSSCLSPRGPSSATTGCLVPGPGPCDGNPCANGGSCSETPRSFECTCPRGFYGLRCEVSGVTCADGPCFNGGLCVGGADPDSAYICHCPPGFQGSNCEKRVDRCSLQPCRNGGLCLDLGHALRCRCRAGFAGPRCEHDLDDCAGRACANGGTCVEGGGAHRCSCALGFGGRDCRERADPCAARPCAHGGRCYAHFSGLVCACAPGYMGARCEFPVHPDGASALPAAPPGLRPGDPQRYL
# Procedure: as §1
# [4] = target: T2, DLL3 target antigen coated on Octet SA …; test: Octet binning on DLL3-coated SA tips; competitor: 3HCE4
# Procedure: as §2
# [5] = target: T2, DLL3 target antigen coated on Octet SA …; test: Octet binning on DLL3-coated SA tips; competitor: DLL3 BiTEs
# Procedure: as §2
# [6] = target: T2, DLL3 target antigen coated on Octet SA …; test: Octet binning on DLL3-coated SA tips; competitor: 2HCE117
# Procedure: as §2
# [7] = target: T3, recombinant human DLL3 protein; test: Fortebio Octet Red, DLL3 immobilised on tips, dilution series of the VHH, 1:1 binding model; koff error 4.12E-06; Full R2 0.9862
# Procedure: as §1
# [8] = target: T4, mouse DLL3 protein (mouse, UniProt O88516 33-490, limits assumed); test: Octet (DLL3 on AR2G tips), ELISA and FACS; values only in FIG. 3
# T4 construct: also called murine DLL3
# T4 sequence (looked up): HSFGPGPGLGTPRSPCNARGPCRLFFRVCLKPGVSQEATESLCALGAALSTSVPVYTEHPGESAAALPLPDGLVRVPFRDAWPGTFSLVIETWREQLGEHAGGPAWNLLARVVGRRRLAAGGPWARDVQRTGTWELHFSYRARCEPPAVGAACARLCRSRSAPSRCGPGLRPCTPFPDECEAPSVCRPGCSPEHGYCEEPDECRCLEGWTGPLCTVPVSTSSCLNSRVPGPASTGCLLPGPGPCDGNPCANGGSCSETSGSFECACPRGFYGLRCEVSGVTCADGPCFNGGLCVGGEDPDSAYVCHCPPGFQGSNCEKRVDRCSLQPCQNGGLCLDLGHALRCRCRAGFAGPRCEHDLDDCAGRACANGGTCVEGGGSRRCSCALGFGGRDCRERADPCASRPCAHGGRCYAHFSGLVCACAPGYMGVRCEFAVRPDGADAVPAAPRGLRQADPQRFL
# [9] = target: T5, DLL3 (ELISA DLL3); test: ELISA, ratio of the signal on DLL3 to the signal on the control
# T5 construct: also called DLL3 protein in ELISA
# T5 chain: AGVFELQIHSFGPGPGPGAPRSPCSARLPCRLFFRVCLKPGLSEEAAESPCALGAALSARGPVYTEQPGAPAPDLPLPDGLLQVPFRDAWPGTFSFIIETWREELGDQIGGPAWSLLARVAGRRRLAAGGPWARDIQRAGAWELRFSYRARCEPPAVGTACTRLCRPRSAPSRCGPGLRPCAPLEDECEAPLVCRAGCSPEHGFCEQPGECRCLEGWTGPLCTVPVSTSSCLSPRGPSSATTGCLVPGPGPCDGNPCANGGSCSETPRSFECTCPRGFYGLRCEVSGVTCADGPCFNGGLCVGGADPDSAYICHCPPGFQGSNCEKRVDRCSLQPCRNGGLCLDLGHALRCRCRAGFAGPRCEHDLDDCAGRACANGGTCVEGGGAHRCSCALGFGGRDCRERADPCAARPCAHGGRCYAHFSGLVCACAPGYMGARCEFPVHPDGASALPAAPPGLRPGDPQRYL
# [10] = target: T2, DLL3 target antigen coated on Octet SA …; test: Octet binning on DLL3-coated SA tips; competitor: 2HCE27
# Procedure: as §2
# [11] = target: T3, recombinant human DLL3 protein; test: Fortebio Octet Red, DLL3 immobilised on tips, dilution series of the VHH, 1:1 binding model; kon error 5.82E+02; Full R2 0.9862
# Procedure: as §1
# [12] = target: T2, DLL3 target antigen coated on Octet SA …; test: Octet binning on DLL3-coated SA tips; competitor: 3HCE87
# Procedure: as §2
binder,measurement,setting,value
B1,binding result,[1],binds
same,binning response (unit not given),[2],0
same,Kd,[3],21.3 nM
same,binning response (unit not given),[4],-79.6
same,binning response (unit not given),[5],44.1
same,binning response (unit not given),[6],1110
same,koff,[7],0.00146 s⁻¹
same,binding result,[8],binds
same,DLL3 / control,[9],18.5
same,binning response (unit not given),[10],-3.58
same,kon,[11],68500 M⁻¹ s⁻¹
same,binning response (unit not given),[12],-99.1
